In patent US7071384B2, “Methods for commercial production of heterologous laccase in plant tissue and extraction of the laccase from plant seed” (Genencor International, Inc., priority 1997, dated 2006):

Experiments:
[1] = Isoelectric point determination; format: physicochemical; conditions: 10 is the highest pI that can be experimentally determined
[2] = Effect of protease inhibitors on avidin stability in flaked maize kernel extract (biotin binding activity); format: physicochemical; conditions: control avidin dissolved in extraction buffer
Description: Dry maize kernels (12% MC; 500 g per batch) were first cracked using a roller mill (Ferrell-Ross, Oklahoma City, Okla.), then flaked to 0.3 mm thickness using Roskamp flaking rolls (Model K, Roskamp Mfg., Inc., Waterloo, Iowa.). The particle size distribution of flaked material was determined by sieving (see Table 1).
Twenty grams of flaked kernels were extracted with 200 ml of Tris-HCl pH 7.9 containing 500 mM NaCl, 1 mM CaCl2 with stirring for 30 min at ambient temperature. One extraction was performed in the absence of protease inhibitors (control) and one in the presence of a protease inhibitor mixture containing 10 mM 2-mercaptoethanol (2-ME), 5 mM ethylenediamine tetraacetic acid (EDTA), 0.1 mM phenylmethanesulfonyl fluoride (PMSF), and 0.2 mM Diazo-N-acetyl-N-Leu-MeO. EDTA and 2-ME were added at the beginning of the extraction, and PMSF and diazo-N-acetyl-N-Leu-MeO were added 15 minutes after the extraction began. The insoluble residue was separated by centrifugation at 20,500×g for 25 minutes at 0° C. The supernatant was filtered through four layers of cheesecloth. […] D: Residual avidin activity in cooked egg white assayed with improved sensitivity. J. Food Sci. 56:707 (1991].and for protein integrity on western blots. For a positive control, chicken egg white avidin (Sigma Chemical Co.) was dissolved in the extraction buffer and samples were taken as above for activity assays.

[3] = Biotin inhibition of HABA binding to avidin; conditions: competitive binding of biotin and HABA to avidin
Excerpt: The normalized absorbance value was obtained by subtracting from all the absorbance values, the value at which the absorbance change stopped.
In vivo, avidin exists as a homotetramer and its activity is to bind biotin to protect avian and reptilian eggs from pathogen invasion. Based upon this biotin-binding property, an analog of biotin, HABA, is utilized for the quantification of activity. Using the HABA binding assay, estimates of total avidin amounts in the fractions eluted from the affinity column were identical to estimates made by ELISA.

## egg white: native chicken egg white avidin (Sigma Chemical Co.)
[1]
  pI: 10
[2]; 0 h
  avidin activity in extraction buffer: 88.2 µg/mL
[2]; 1 h
  avidin activity in extraction buffer: 62.6 µg/mL
[2]; 3 h
  avidin activity in extraction buffer: 61.1 µg/mL
[2]; 6 h
  avidin activity in extraction buffer: 60.6 µg/mL
[2]; 22 h
  avidin activity in extraction buffer: 59.6 µg/mL
[3]
  Ki: 3.2 µM
